Assay results taken from article doi:10.1101/2022.02.17.480956 (bioRxiv, 2022).

Tests used:
COUP-TFII-GST [1] = target: T1, COUP-TFII-GST (mouse, UniProt P43135 1-414); assay: native gel or EMSA
T1 sequence (looked up): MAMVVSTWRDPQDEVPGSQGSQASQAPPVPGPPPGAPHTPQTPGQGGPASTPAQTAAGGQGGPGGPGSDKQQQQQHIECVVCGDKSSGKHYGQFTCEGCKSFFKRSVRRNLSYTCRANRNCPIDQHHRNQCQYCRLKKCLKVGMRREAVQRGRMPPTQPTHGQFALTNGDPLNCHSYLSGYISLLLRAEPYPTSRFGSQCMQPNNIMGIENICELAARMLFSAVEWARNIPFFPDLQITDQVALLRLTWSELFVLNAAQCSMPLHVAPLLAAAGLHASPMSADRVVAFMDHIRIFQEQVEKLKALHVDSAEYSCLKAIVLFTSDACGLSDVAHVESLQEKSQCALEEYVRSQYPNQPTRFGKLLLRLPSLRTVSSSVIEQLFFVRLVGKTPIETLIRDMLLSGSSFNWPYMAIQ

[2] = target: T2, recombinant COUP-TFII (construct not told for this experiment) (mouse, UniProt P43135 1-414); assay: native gel or EMSA
T2 sequence (looked up): T1 sequence (looked up)

COUP-TFII;NKX2-1 = target: T3, COUP-TFII;NKX2-1 (mouse;, UniProt P43135;P50220 1-414;1-372, |); assay: EMSA
T3 sequence 1: T1 sequence (looked up)
T3 sequence 2: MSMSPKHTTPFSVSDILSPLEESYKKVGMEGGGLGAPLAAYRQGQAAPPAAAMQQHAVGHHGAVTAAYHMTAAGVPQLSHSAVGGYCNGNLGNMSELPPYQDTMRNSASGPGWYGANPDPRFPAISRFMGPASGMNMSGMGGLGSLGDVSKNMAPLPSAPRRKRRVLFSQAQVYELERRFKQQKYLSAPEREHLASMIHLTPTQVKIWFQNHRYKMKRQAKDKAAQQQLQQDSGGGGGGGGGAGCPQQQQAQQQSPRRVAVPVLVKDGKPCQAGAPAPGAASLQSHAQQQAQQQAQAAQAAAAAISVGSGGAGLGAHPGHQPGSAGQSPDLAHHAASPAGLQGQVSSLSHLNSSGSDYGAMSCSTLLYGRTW

COUP-TFII-GST [3] = target: T4, COUP-TFII-GST (mouse, UniProt P43135 1-414); assay: EMSA
T4 sequence: T1 sequence (looked up)

B1: recombinant NKX2-3 (natural protein, mouse, UniProt P97334 1-362, looked up)
chain: MMLPSPVTSTPFSVKDILNLEQQRHFHGAHLQAELEQHFHSAPCMLATAEGTQFSDAGEEDEEEEGEKLSYLNSLAAAEGHGDSGLCPQSYVHTVLRDACSGPKEQEEEVVSERSQKSCQLKKSLEAAGDCKTSEDGERPKPRSRRKPRVLFSQAQVFELERRFKQQRYLSAPEREHLASSLKLTSTQVKIWFQNRRYKCKRQRQDKSLELGTHAPPPPPRRVAVPVLVRDGKPCVTPSAQTYGSPYGVGAGAYSYNSFPAYGYGNSAAAAAAAAAAAAAAAAYSGSYGCAYPTGGGGGGGGTASAATTAMQPACSATGGGSFVNVSNLGGFGSGGGAQPLHQGAAAGSACTQGTLQGIRAW
Question: Which results are given for B1?
Answer: binding result (COUP-TFII-GST [1]): binds; binding result [2]: binds

B2: Nrp2 NCCE (dsDNA)
DNA 1: TTGCCAAATTATGTGACCTTTGGCAGACCAGCTG
DNA 2: CAGCTGGTCTGCCAAAGGTCACATAATTTGGCAA
Question: Does B2 bind (COUP-TFII;NKX2-1)?
Answer: binds

B3: CE_ΔC_AB (dsDNA)
DNA 1: CCATGCACTTGAAAAAAAATGGAAAAACACCTCC
DNA 2: GGAGGTGTTTTTCCATTTTTTTTCAAGTGCATGG
Question: Does B3 bind (COUP-TFII-GST [3])?
Answer: no binding
